Values of other authors in article PMC4651712.

Target: PTHR1 (Homo sapiens) (UniProt Q03431)
UniProt Q03431, sequence (Q03431 27-593): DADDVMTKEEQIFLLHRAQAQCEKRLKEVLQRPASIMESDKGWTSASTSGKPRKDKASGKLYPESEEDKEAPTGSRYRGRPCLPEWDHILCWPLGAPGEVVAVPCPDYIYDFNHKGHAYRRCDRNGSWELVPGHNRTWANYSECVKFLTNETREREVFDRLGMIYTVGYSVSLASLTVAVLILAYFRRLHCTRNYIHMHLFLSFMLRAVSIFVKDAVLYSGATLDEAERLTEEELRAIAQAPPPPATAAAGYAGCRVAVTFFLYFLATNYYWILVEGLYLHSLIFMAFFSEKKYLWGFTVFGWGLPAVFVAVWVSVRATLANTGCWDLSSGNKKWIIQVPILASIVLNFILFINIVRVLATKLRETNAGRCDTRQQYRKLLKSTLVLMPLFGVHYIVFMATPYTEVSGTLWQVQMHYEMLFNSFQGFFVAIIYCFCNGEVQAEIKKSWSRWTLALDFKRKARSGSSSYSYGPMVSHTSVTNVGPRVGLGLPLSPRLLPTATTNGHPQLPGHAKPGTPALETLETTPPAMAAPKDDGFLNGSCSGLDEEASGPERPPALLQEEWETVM

## PTH (from UniProt P01270)
  Kd: 1 nM
